In publication PMC7556464, “4CMenB vaccine induces elite cross-protective human antibodies that compete with human factor H for binding to meningococcal fHbp” (PLoS Pathogens, 2020):
Positions count from the first letter of the chain named.

T1: factor H binding protein (fHbp) variant 1.1, recombinant (Neisseria meningitidis MC58, fHbp v1.1)
T1 construct: also called fHbp v1.1; fHbp v1; source: E. coli BL21(DE3), purified (Ni-NTA, SEC when necessary); not shown: His6, C-terminal, kept
T1 chain: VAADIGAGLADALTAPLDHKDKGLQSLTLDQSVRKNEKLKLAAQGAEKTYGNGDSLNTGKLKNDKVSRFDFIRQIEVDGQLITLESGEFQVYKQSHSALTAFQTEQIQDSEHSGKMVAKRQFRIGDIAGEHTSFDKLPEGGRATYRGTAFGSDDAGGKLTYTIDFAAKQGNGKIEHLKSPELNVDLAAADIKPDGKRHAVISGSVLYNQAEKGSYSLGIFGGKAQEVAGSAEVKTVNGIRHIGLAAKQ

B1: human anti-fHbp mAb 5C6 (antibody, V domains shown)
VH: EVQLLESGGGLVQPGGSLRLSCAASGFTFSSYAMSWVRQTPGKGLEWVSAISGSGGSTYYADSVQGRFTISRDNSKNTLYLQINSLRAEDTAVYYCAKDPGFVLSSGWYYFDYWGQGTLVTVSS
VL: not shown
notes: IgG1; source: Expi293, transient transfection, purified (protein G Sepharose)
B2: human anti-fHbp mAb 5F12 (antibody, V domains shown)
VH: EVQLVESGGDLVKPGGSLRLSCAASGFTFSNYTMNWVRQAPGKGLEWVSSITSSSSFKYYADSVKGRFTISRDNAKNSVFLQMNSLRAEDTAIYYCARRIDSSDQDWFYYYGMDVWGLGTTVTVSS
VL: QSVLTQPPSVSAAPGQRVTISCSGSSSNIGDNYISWYQQLPGTAPKLLIYDNDQRPSGTPDRFSASKSGTSATLGVTGLQTGDEADYYCGTWDSSLNAPVFGSGTKVTVL
notes: as for B1
B3: human anti-fHbp mAb 4F9 (antibody, V domains shown)
VH: QVQLVQSGGGLVKPGGSLRLSCAASGFPFSSYYMSWIRQAPGKGLEWVSDINNSGNVKEYADFVKGRLTISRDNVKNSMYLHMNSLRVEDTAVYYCARNRGRFDVWGQGTLVTVSA
VL: EIVMTQSPGTLSLSPGETATLSCRASQMISSPFLAWYQQRRGQAPRLLIYGASTRATDTPDRFRGSGSGTDFILTISRLEPEDFAVYYCQHYDDSPFTFGQGTKLEIK
notes: as for B1
B4: human anti-fHbp mAb 3G7 (antibody, V domains shown)
VH: B3 VH with Q1E, V5L
VL: B3 VL with M4L, H91Y
notes: as for B1
B5: human anti-fHbp mAb 4B3 (IgG1) (antibody, V domains shown)
VH: B3 VH
VL: B3 VL with H91Y
notes: as for B1
B6: human anti-fHbp mAb 1E10 (antibody, V domains shown)
VH: QVQLVESGGDLVKPGGSLRLSCVASGFTFSSYTMNWVRQAPGKGLEWVSSITSSSSFTYYADSVKGRFIISRDNAKNSLSLQMNNLRVEDTATYYCARRKDSSDYDWYYYYGMDVWGLGTTVTVSS
VL: QSVVTQPPSVSAAPGQKVTISCSGSSSNIGDNYMSWYQQIPGTAPKLLIFDNDQRPSGIPDRFSASKSGTSATLDITGFQTGDEADYYCGTWDSGLSAPVFGGGTKLTVL
notes: as for B1
B7: human anti-fHbp mAb 2G1 (antibody, V domains shown)
VH: B6 VH
VL: B6 VL with V4L
notes: as for B1
B8: human anti-fHbp mAb 1D1 (antibody, V domains shown)
VH: QVQLVGSGGGLVKPGGSLRLSCAASGFTFSSYTMNWVRQAPGKGLEWVSSISSSSGYIYYADSLKGRFTISRDDAKNSLFLQMNSLRAEDTAVYFCARDKVLPAPPGFYGLDVWGPGTTVTVSS
VL: QSVVTQPPSVSAAPGQKVTISCSGSSSNIEDNFVSWYQQLPGTAPKLLIYDNNQRPSGIPDRFSGSKSGTSATLGITGLQTGDEADYYCATWDNSLSARVFGGGTKLTVL
notes: as for B1
B9: human anti-fHbp mAb 3F1 (antibody, V domains shown)
VH: B8 VH with Q1E, Q3H, G6E, D74N
VL: B8 VL
notes: as for B1
B10: human anti-fHbp mAb 2C8 (antibody, V domains shown)
VH: QVQLVQSGAEVKKPGSSVKVSCKASGGTVINYPISWVRQVPGQGLEWMGRLVPLFGTPNYGQKFQGRITITADKSTSAAYMELIGLKSEDTAVYYCARGDTAMAPFDYWGHGTLVTVSS
VL: QLVLTQPPSVSVAPGKTATITCGGNNVGGKTVHWYQQKPGQAPVLVMSYDSDRPSGIPERFSGSNSGNTATLTISRVEAEDEADYYCQVWHGNDDHWVFGGGTKLTVL
notes: as for B1

target: T2, native fHbp v2.16 on live N. meningitidis strain UK104 (M08-240104) (Neisseria meningitidis, UniProt Q6VS19); assay: flow cytometry on cells; live meningococci (MC58, UK104, UK320) in mid-log phase incubated with mAbs at 10 ug/ml; detected with FITC anti-human IgG; conditions: one partner purified
T2 construct: source: endogenous, on live N. meningitidis M08-240104 (UK104)

Row | Binder | binding result
1 | B1 | binds

target: T3, factor H binding protein (fHbp) variant 3.28, recombinant (Neisseria meningitidis M1239, fHbp v3.28, UniProt Q19KF7, strain); assay: SPR; conditions: both partners purified
T3 construct: also called fHbp v3.28; fHbp v3; source: E. coli BL21(DE3), purified (Ni-NTA, SEC when necessary)

Row | Binder | Kd
2 | B2 | 1.75 nM
3 | B3 | 0.24 nM
4 | B4 | 0.68 nM
5 | B5 | 0.633 nM
6 | B1 | 2.03 nM
7 | B6 | 1.27 nM
8 | B7 | 1.75 nM
9 | B8 | 1.72 nM
10 | B9 | 1.8 nM
11 | B10 | 0.46 nM

target: T4, factor H binding protein (fHbp) variant 2.16, recombinant (Neisseria meningitidis 961-5945, UniProt Q6VS19, strain); assay: SPR; conditions: both partners purified
T4 construct: also called fHbp v2.16; fHbp v2; source: E. coli BL21(DE3), purified (Ni-NTA, SEC when necessary)

Row | Binder | Kd
12 | B2 | 2.75 nM
13 | B3 | 0.0285 nM
14 | B4 | 0.0526 nM
15 | B5 | 0.029 nM
16 | B1 | 1.7 nM
17 | B6 | 1.4 nM
18 | B7 | 1.7 nM
19 | B8 | 2.61 nM
20 | B9 | 11.3 nM
21 | B10 | 0.0525 nM

Target: T1, factor H binding protein (fHbp) variant …
Assay: SPR
Conditions: both partners purified

Row | Binder | Kd
22 | B2 | 1.01 nM
23 | B3 | 0.077 nM
24 | B4 | 0.344 nM
25 | B5 | 0.328 nM
26 | B1 | 1.08 nM
27 | B6 | 1.54 nM
28 | B7 | 1.08 nM
29 | B8 | 0.893 nM
30 | B9 | 1.04 nM
31 | B10 | 0.34 nM

Target: T1, factor H binding protein (fHbp) variant …
Assay: BLI; Octet 384 Red, 30 C; mAb 4B3 captured on Anti-Human Fc biosensors, wild type and mutant fHbp in solution, 150 nM to 1 nM, in 1 x PBS, 1% (w/v) BSA; triplicate
Conditions: both partners purified

Row | Binder | Kd
32 | B5 | 1.7 nM

target: T2, native fHbp v2.16 on live N. …; assay: flow cytometry on cells; conditions: one partner purified

Row | Binder | binding result
33 | B3 | binds
34 | B4 | binds
35 | B5 | binds
